B1: Coiled-coil domain-containing protein 6 (Homo sapiens), Q16204 (parent)
chain: MADSASESDTDGAGGNSSSSAAMQSSCSSTSGGGGGGGGGGGGGKSGGIVISPFRLEELTNRLASLQQENKVLKIELETYKLKCKALQEENRDLRKASVTIQARAEQEEEFISNTLFKKIQALQKEKETLAVNYEKEEEFLTNELSRKLMQLQHEKAELEQHLEQEQEFQVNKLMKKIKKLENDTISKQLTLEQLRREKIDLENTLEQEQEALVNRLWKRMDKLEAEKRILQEKLDQPVSAPPSPRDISMEIDSPENMMRHIRFLKNEVERLKKQLRAAQLQHSEKMAQYLEEERHMREENLRLQRKLQREMERREALCRQLSESESSLEMDDERYFNEMSAQGLRPRTVSSPIPYTPSPSSSRPISPGLSYASHTVGFTPPTSLTRAGMSYYNSPGLHVQHMGTSHGITRPSPRRSNSPDKFKRPTPPPSPNTQTPVQPPPPPPPPPMQPTVPSAATSQPTPSQHSAHPSSQP

Tests used:
Details in all cases: with fbxw7_human FBXW7, Q969H0
[1] = variants of: B1
[2] = variants of: B1; remark: listed apart in the source
[3] = variants of: B1; remark: listed apart in the source
[4] = variants of: B1; remark: listed apart in the source
[5] = variants of: B1; remark: listed apart in the source

Sequence of fbxw7_human FBXW7, Q969H0 (Q969H0 whole entry): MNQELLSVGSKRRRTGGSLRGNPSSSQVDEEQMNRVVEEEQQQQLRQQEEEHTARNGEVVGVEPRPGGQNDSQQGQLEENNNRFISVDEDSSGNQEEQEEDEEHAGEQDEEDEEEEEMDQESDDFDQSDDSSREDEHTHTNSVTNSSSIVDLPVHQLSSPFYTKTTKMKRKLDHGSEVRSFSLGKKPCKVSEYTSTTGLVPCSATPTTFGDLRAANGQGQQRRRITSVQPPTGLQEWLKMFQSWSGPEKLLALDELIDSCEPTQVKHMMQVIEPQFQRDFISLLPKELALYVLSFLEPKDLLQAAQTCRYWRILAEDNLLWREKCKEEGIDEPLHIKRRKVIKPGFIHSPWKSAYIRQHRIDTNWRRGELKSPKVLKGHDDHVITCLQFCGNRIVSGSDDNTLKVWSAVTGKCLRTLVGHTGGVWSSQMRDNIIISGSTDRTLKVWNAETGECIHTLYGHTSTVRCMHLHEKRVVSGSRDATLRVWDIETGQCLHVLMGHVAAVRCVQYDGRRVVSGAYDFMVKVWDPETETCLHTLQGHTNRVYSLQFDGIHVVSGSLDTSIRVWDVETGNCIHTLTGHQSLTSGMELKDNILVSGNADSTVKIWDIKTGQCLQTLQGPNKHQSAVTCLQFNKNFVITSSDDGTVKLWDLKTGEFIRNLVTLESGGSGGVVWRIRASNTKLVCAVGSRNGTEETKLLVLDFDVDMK

Variant | effect of a mutation on the interaction [1] | effect of a mutation on the interaction [2] | effect of a mutation on the interaction [3] | effect of a mutation on the interaction [4] | effect of a mutation on the interaction [5]
MADSASESDTDGAGGNSSSSAAMQSSCSSTSGGGGGGGGGGGGGKSGGIVISPFRLEELTNRLASLQQENKVLKIELETYKLKCKALQEENRDLRKASVTIQARAEQEEEFISNTLFKKIQALQKEKETLAVNYEKEEEFLTNELSRKLMQLQHEKAELEQHLEQEQEFQVNKLMKKIKKLENDTISKQLTLEQLRREKIDLENTLEQEQEALVNRLWKRMDKLEAEKRILQEKLDQPVSAPPSPRDISMEIDSPENMMRHIRFLKNEVERLKKQLRAAQLQHSEKMAQYLEEERHMREENLRLQRKLQREMERREALCRQLSESESSLEMDDERYFNEMSAQGLRPRTVSSPIPYTPAPSSSRPISPGLSYASHTVGFTPPTSLTRAGMSYYNSPGLHVQHMGTSHGITRPSPRRSNSPDKFKRPTPPPSPNTQTPVQPPPPPPPPPMQPTVPSAATSQPTPSQHSAHPSSQP [S359A] | disrupting interaction | decreasing interaction |  |  | 
MADSASESDTDGAGGNSSSSAAMQSSCSSTSGGGGGGGGGGGGGKSGGIVISPFRLEELTNRLASLQQENKVLKIELETYKLKCKALQEENRDLRKASVTIQARAEQEEEFISNTLFKKIQALQKEKETLAVNYEKEEEFLTNELSRKLMQLQHEKAELEQHLEQEQEFQVNKLMKKIKKLENDTISKQLTLEQLRREKIDLENTLEQEQEALVNRLWKRMDKLEAEKRILQEKLDQPVSAPPSPRDISMEIDSPENMMRHIRFLKNEVERLKKQLRAAQLQHSEKMAQYLEEERHMREENLRLQRKLQREMERREALCRQLSESESSLEMDDERYFNEMSAQGLRPRTVSSPIPYTPSPSSSRPISPGLSYASHTVGFTPPTSLTRAGMSYYNSPGLHVQHMGTSHGITRPAPRRSNSPDKFKRPTPPPSPNTQTPVQPPPPPPPPPMQPTVPSAATSQPTPSQHSAHPSSQP [S413A] | disrupting interaction |  | decreasing interaction |  | 
MADSASESDTDGAGGNSSSSAAMQSSCSSTSGGGGGGGGGGGGGKSGGIVISPFRLEELTNRLASLQQENKVLKIELETYKLKCKALQEENRDLRKASVTIQARAEQEEEFISNTLFKKIQALQKEKETLAVNYEKEEEFLTNELSRKLMQLQHEKAELEQHLEQEQEFQVNKLMKKIKKLENDTISKQLTLEQLRREKIDLENTLEQEQEALVNRLWKRMDKLEAEKRILQEKLDQPVSAPPSPRDISMEIDSPENMMRHIRFLKNEVERLKKQLRAAQLQHSEKMAQYLEEERHMREENLRLQRKLQREMERREALCRQLSESESSLEMDDERYFNEMSAQGLRPRTVSSPIPYTPSPSSSRPISPGLSYASHTVGFTPPTSLTRAGMSYYNSPGLHVQHMGTSHGITRPSPRRSNSPDKFKRPAPPPSPNTQTPVQPPPPPPPPPMQPTVPSAATSQPTPSQHSAHPSSQP [T427A] | disrupting interaction |  |  | decreasing interaction | 
MADSASESDTDGAGGNSSSSAAMQSSCSSTSGGGGGGGGGGGGGKSGGIVISPFRLEELTNRLASLQQENKVLKIELETYKLKCKALQEENRDLRKASVTIQARAEQEEEFISNTLFKKIQALQKEKETLAVNYEKEEEFLTNELSRKLMQLQHEKAELEQHLEQEQEFQVNKLMKKIKKLENDTISKQLTLEQLRREKIDLENTLEQEQEALVNRLWKRMDKLEAEKRILQEKLDQPVSAPPSPRDISMEIDSPENMMRHIRFLKNEVERLKKQLRAAQLQHSEKMAQYLEEERHMREENLRLQRKLQREMERREALCRQLSESESSLEMDDERYFNEMSAQGLRPRTVSSPIPYTPSPSSSRPISPGLSYASHTVGFTPPTSLTRAGMSYYNSPGLHVQHMGTSHGITRPSPRRSNSPDKFKRPTPPPSPNAQTPVQPPPPPPPPPMQPTVPSAATSQPTPSQHSAHPSSQP [T434A] |  |  |  |  | disrupting interaction

From IntAct's records for PubMed 23108047
